Test results reported in PMC3947336.

Experiments:
[1] = molecular target: Bxz2 Int (mycobacteriophage Bxz2 serine-integrase, gene 34) (mycobacteriophage Bxz2); assay: native gel or EMSA
[2] = molecular target: Bxz2 MBP-Int fusion protein (mycobacteriophage Bxz2); assay: native gel or EMSA

Row | Substance | stoichiometry N [1] | stoichiometry N [2]
1 | Bxz2 Int (mycobacteriophage Bxz2 serine-integrase, gene 34) (enzyme) | 2 | –
2 | Bxz2 MBP-Int fusion protein (enzyme) | – | 2
